Source: patent US8895526B2, “Identification of RNAI targets and use of RNAI for rational therapy of chemotherapy-resistant leukemia and other cancers” (Cold Spring Harbor Laboratory, priority 2009, dated 2014)

B1: Smarcd1.1858: shRNA, SEQ ID NO: 70 (nucleic acid)
guide: TGCTGTTGACAGTGAGCGCTAGGACCTCTAGATAGTGTTATAGTGAAGCCACAGATGTATAACACTATCTAGAGGTCCTATTGCCTACTGCCTCGGA
B2: Eed.1829: shRNA targeting Eed; probably Eed.1820, SEQ ID NO: 227 (nucleic acid)
guide: TGCTGTTGACAGTGAGCGCTAGAAGTAATGTATCTTGCTATAGTGAAGCCACAGATGTATAGCAAGATACATTACTTCTATTGCCTACTGCCTCGGA
B3: Suz12.1676: shRNA, SEQ ID NO: 75 (nucleic acid)
guide: TGCTGTTGACAGTGAGCGATAGGATAGATGTTTCAATCAATAGTGAAGCCACAGATGTATTGATTGAAACATCTATCCTAGTGCCTACTGCCTCGGA
B4: Trp53.1224: neutral control shRNA, SEQ ID NO: 214 (nucleic acid)
chain: TGCTGTTGACAGTGAGCGCCCACTACAAGTACATGTGTAATAGTGAAGCCACAGATGTATTACACATGTACTTGTAGTGGATGCCTACTGCCTCGGA
B5: BRAF.3750: neutral control shRNA, SEQ ID NO: 191 (nucleic acid)
chain: TGCTGTTGACAGTGAGCGCTAGCATAATGACAATTATTTATAGTGAAGCCACAGATGTATAAATAATTGTCATTATGCTAATGCCTACTGCCTCGGA
B6: Kit.4813: neutral control shRNA, SEQ ID NO: 197 (nucleic acid)
chain: TGCTGTTGACAGTGAGCGATTGGATATTCTTGAAAGTTTATAGTGAAGCCACAGATGTATAAACTTTCAAGAATATCCAAGTGCCTACTGCCTCGGA
B7: Mn1.1403: neutral control shRNA, SEQ ID NO: 205 (nucleic acid)
chain: TGCTGTTGACAGTGAGCGCAACGGTACCCTAGACAACCAATAGTGAAGCCACAGATGTATTGGTTGTCTAGGGTACCGTTATGCCTACTGCCTCGGA
B8: Map2k1.1200: neutral control shRNA, SEQ ID NO: 203 (nucleic acid)
chain: TGCTGTTGACAGTGAGCGAGCCTCTCAGCTCATATGGAATTAGTGAAGCCACAGATGTAATTCCATATGAGCTGAGAGGCCTGCCTACTGCCTCGGA
B9: Lin28.2186: neutral control shRNA, SEQ ID NO: 199 (nucleic acid)
chain: TGCTGTTGACAGTGAGCGAATGGTTGATAGCTAAAGGAAATAGTGAAGCCACAGATGTATTTCCTTTAGCTATCAACCATCTGCCTACTGCCTCGGA
B10: Ptgs2.1082: neutral control shRNA, SEQ ID NO: 209 (nucleic acid)
chain: TGCTGTTGACAGTGAGCGCCAAGATAGTGATCGAAGACTATAGTGAAGCCACAGATGTATAGTCTTCGATCACTATCTTGATGCCTACTGCCTCGGA
B11: Renilla.713: neutral control shRNA, SEQ ID NO: 213 (nucleic acid)
chain: TGCTGTTGACAGTGAGCGCAGGAATTATAATGCTTATCTATAGTGAAGCCACAGATGTATAGATAAGCATTATAATTCCTATGCCTACTGCCTCGGA
B12: Mn1.2545: neutral control shRNA, SEQ ID NO: 206 (nucleic acid)
chain: TGCTGTTGACAGTGAGCGCCAGCGCGGTTGCAGCCGGTAATAGTGAAGCCACAGATGTATTACCGGCTGCAACCGCGCTGTTGCCTACTGCCTCGGA
B13: Luciferase.1309: neutral control shRNA, SEQ ID NO: 202 (nucleic acid)
chain: TGCTGTTGACAGTGAGCGCCCGCCTGAAGTCTCTGATTAATAGTGAAGCCACAGATGTATTAATCAGAGACTTCAGGCGGTTGCCTACTGCCTCGGA
B14: Lin28.2180: neutral control shRNA, SEQ ID NO: 198 (nucleic acid)
chain: TGCTGTTGACAGTGAGCGCAGCGTGATGGTTGATAGCTAATAGTGAAGCCACAGATGTATTAGCTATCAACCATCACGCTATGCCTACTGCCTCGGA
B15: Mn1.5760: neutral control shRNA, SEQ ID NO: 207 (nucleic acid)
chain: TGCTGTTGACAGTGAGCGCTTGGTTTAGCAGGAAGAATAATAGTGAAGCCACAGATGTATTATTCTTCCTGCTAAACCAAATGCCTACTGCCTCGGA
B16: Ptgs2.2058: neutral control shRNA, SEQ ID NO: 210 (nucleic acid)
chain: TGCTGTTGACAGTGAGCGCCCGGTGTTTGTCCTTTAAATATAGTGAAGCCACAGATGTATATTTAAAGGACAAACACCGGATGCCTACTGCCTCGGA
B17: Lin28.2270: neutral control shRNA, SEQ ID NO: 200 (nucleic acid)
chain: TGCTGTTGACAGTGAGCGCAACGGGACAAATGCAATAGAATAGTGAAGCCACAGATGTATTCTATTGCATTTGTCCCGTTTTGCCTACTGCCTCGGA
B18: Ptgs2.3711: neutral control shRNA, SEQ ID NO: 212 (nucleic acid)
chain: TGCTGTTGACAGTGAGCGCAACGTTCATGGATAAATTCTATAGTGAAGCCACAGATGTATAGAATTTATCCATGAACGTTATGCCTACTGCCTCGGA
B19: Ptgs2.284: neutral control shRNA, SEQ ID NO: 211 (nucleic acid)
chain: TGCTGTTGACAGTGAGCGAAAGAATCAAATTACTGCTGAATAGTGAAGCCACAGATGTATTCAGCAGTAATTTGATTCTTGTGCCTACTGCCTCGGA
B20: Kit.221: neutral control shRNA, SEQ ID NO: 196 (nucleic acid)
chain: TGCTGTTGACAGTGAGCGCCAGATGGACTTTCAAGACCTATAGTGAAGCCACAGATGTATAGGTCTTGAAAGTCCATCTGATGCCTACTGCCTCGGA
B21: BRAF.5053: neutral control shRNA, SEQ ID NO: 193 (nucleic acid)
chain: TGCTGTTGACAGTGAGCGCTAGGGTGATGTCTCACTTGAATAGTGAAGCCACAGATGTATTCAAGTGAGACATCACCCTATTGCCTACTGCCTCGGA
B22: BRAF.3826: neutral control shRNA, SEQ ID NO: 192 (nucleic acid)
chain: TGCTGTTGACAGTGAGCGCCCCATTGTTTCTTCCAACTTATAGTGAAGCCACAGATGTATAAGTTGGAAGAAACAATGGGATGCCTACTGCCTCGGA
B23: Lin28.2430: neutral control shRNA, SEQ ID NO: 201 (nucleic acid)
chain: TGCTGTTGACAGTGAGCGATGGCCTAGTTGTGTAAATATATAGTGAAGCCACAGATGTATATATTTACACAACTAGGCCACTGCCTACTGCCTCGGA
B24: Mn1.5864: neutral control shRNA, SEQ ID NO: 208 (nucleic acid)
chain: TGCTGTTGACAGTGAGCGCATCGCTATTGCACATGTATAATAGTGAAGCCACAGATGTATTATACATGTGCAATAGCGATTTGCCTACTGCCTCGGA
B25: Kit.1241: neutral control shRNA, SEQ ID NO: 194 (nucleic acid)
chain: TGCTGTTGACAGTGAGCGATTCCGTGACATTCAACGTTTATAGTGAAGCCACAGATGTATAAACGTTGAATGTCACGGAAGTGCCTACTGCCTCGGA
B26: Map2k1.2337: neutral control shRNA, SEQ ID NO: 204 (nucleic acid)
chain: TGCTGTTGACAGTGAGCGCCAAGATGTTTATCAAATCTAATAGTGAAGCCACAGATGTATTAGATTTGATAAACATCTTGATGCCTACTGCCTCGGA
B27: Kit.2021: neutral control shRNA, SEQ ID NO: 195 (nucleic acid)
chain: TGCTGTTGACAGTGAGCGACACCCTGGTCATTACAGAATATAGTGAAGCCACAGATGTATATTCTGTAATGACCAGGGTGGTGCCTACTGCCTCGGA

The molecules below were run on normal hematopoietic cells (assay: Dual-color competition assay of hematopoietic reconstitution in vivo). Details: 4 weeks after transplantation, LMN-GFP vs mCherry control.
Description: LMN vectors harboring shRNAs are transduced into fetal livers. Infected cells are subsequently transplanted into lethally irradiated recipients. This assay compares the relative contribution of the experimental shRNA (in an LMN vector harboring a GFP marker) to a control, neutral shRNA (in an LMN vector harboring a red fluorescent protein marker (mCherry)). The effect of the experimental shRNA on hematopoesis is assessed by the ratio of these two markers in subsets of peripheral blood cells, or bone marrow or spleen, measured at 4 weeks.
As an additional verification that therapy resistant AML leukemias harbor a unique sensitivity to inhibition of the identified epigenetic pathways, the influence of the epigenetics shRNAs on normal hematopoiesis was also examined in vivo following retroviral transduction of LMN (MSCV-miR30/shRNA-PGK-Neo-IRES-GFP; constructed by inserting a miR30-cassette and a PGK-NeomycinR-IRES-GFP cassette in the MSCV-backbone (Clontech)) into E13.5 fetal livers and subsequent transplantation of infected cells into lethally irradiated recipients (FIG. 27). This assay compares the relative contribution of the experimental shRNA vector (linked with GFP) to control, neutral shRNA LMN vector that harbors the red fluorescent protein (mCherry). At 4 weeks following transplantation of the mixed GFP+ and mCherry+ cells into recipient animals, the ratio of these two colors is measured in subsets of peripheral blood cells of various hematopoietic lineages or in bone marrow and spleens by co-staining with surface markers (e.g. Mac1, Gr1 for myeloid, B220 for B-lymphoid).

Molecule	impact on proliferation of normal hematopoietic cells in vivo
B1	little, if any impact
B2	little, if any impact
B3	little, if any impact

Each molecule was assayed on tet-on competent MLL/AF9+Nras AML (assay: Pooled negative selection RNAi screening (deep sequencing)). Details: deep sequencing reads, On Dox compared to T0.
Format: cell-based, mouse
Method in brief: (§1)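 A pool of 1230 tet-regulated shRNAs (TRMPV-type) was retrovirally transduced at mostly single copy and ~1000-fold representation into tet-on MLL/AF9+Nras AML cells or immortalized murine embryonic fibroblasts, then cultured on or off doxycycline. shRNA-expressing cells were FACS-sorted, and shRNA representation was quantified by PCR and deep sequencing of genomic DNA, with depletion on dox compared against t0 and off dox.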

Molecule	Fold depletion in AML [Fold]
B4	0.10
B5	0.76
B6	0.81
B7	1.94
B8	2.26
B9	1.43
B10	0.51
B11	1.29
B12	0.81
B13	1.22
B14	1.15
B15	0.38
B16	1.78
B17	0.22
B18	1.38
B19	0.34
B20	1.19
B21	0.66
B22	0.92
B23	1.37
B24	0.61
B25	1.88
B26	0.24
B27	1.92

The molecules below were run on immortalized murine embryonic fibroblasts (Mef) in the same assay as above. Details: deep sequencing reads, on dox compared to initial representation.
Format: cell-based
Method in brief: as §1

Molecule	Fold depletion in Mef [Fold]
B4	0.84
B5	1.08
B6	0.84
B7	0.77
B8	1.24
B9	1.55
B10	0.51
B11	1.02
B12	0.29
B13	0.52
B14	0.80
B15	0.91
B16	1.27
B17	1.10
B18	1.46
B19	1.21
B20	0.69
B21	0.33
B22	0.87
B23	0.89
B24	1.09
B25	0.99
B26	0.68
B27	1.61
